Measured values from paper PMC12852032.

What was measured:
[1] = target: recombinant rat C2 (rat); assay: Meso Scale Discovery (electrochemiluminescence plate binding assay); rat C2 coated on the plate; serial dilutions of antibody; binding and washing at pH 7.4 + 1.25 mM Ca2+
[2] = target: recombinant rat C2 (rat); assay: Meso Scale Discovery (electrochemiluminescence plate binding assay); rat C2 coated on the plate; serial dilutions of antibody; binding and washing at pH 7.4; detection with Sulfo-tag goat anti-human IgG

maximum MSD signal [1]: 24700
maximum MSD signal [2]: 12000
B1: empasiprubart (antibody, V domains shown)
VH: EVQLVQSGAEVKKPGASVKVSCKASGYTFTDYNMDWVRQATGQGLEWIGDINPNYESTGYNQKFKGRATMTVDKSISTAYMELSSLRSEDTAVYYCAREDDHDAFAYWGQGTLVTVSS
VL: DNVLTQSPDSLAVSLGERATISCRASKSVRTSGYNYMHWYQQKPGQPPKLLIYLASNLKSGVPDRFSGSGSGTDFTLTISSLQAEDAATYYCQHSRELPYTFGQGTKLEIK
